Test results from the supplement of paper PMC9112550, “Optimization of the antimicrobial peptide Bac7 by deep mutational scanning” (BMC Biology, 2022).

The sequences below were run on Escherichia coli TOP10 (assay: shrunken log2 fold change of peptide-encoding DNA abundance (4.5 h post-induction vs induction); higher = less antimicrobial activity (less host growth inhibition)). Settings: time post-induction: 4.5 h; library: site-saturation at positions 5, 18, 19, 20.
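Further: peptides expressed intracellularly from a pBAD plasmid library in pooled LB shake-flask culture, induced with 0.3% L-arabinose, DNA abundance read by NGS, three biological replicates, DESeq2 with apeglm shrinkage.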

Q: How did the “shrunken log2 fold change” value turn out when RRIRARPPRLPRPRPRPNASPRP was run?
A: 0.711

Q: With RRIRERPPRLPRPRPRPTNYPRP as the sequence, how does the “shrunken log2 fold change” value read?
A: -0.068

Q: With RRIRQRPPRLPRPRPRPAETPRP as the sequence, how does the “shrunken log2 fold change” value read?
A: 0.0338

Q: RRIRCRPPRLPRPRPRPRRSPRP was tested. Which “shrunken log2 fold change” value did it give?
A: 0.762

Q: Which “shrunken log2 fold change” value does the source give for RRIRWRPPRLPRPRPRPYFWPRP here?
A: -0.222

Q: RRIRYRPPRLPRPRPRPSLNPRP was tested. Which “shrunken log2 fold change” value did it give?
A: -0.646

Q: RRIRKRPPRLPRPRPRPEQTPRP was tested. Which “shrunken log2 fold change” value did it give?
A: 1.15

Q: With RRIRVRPPRLPRPRPRPPFGPRP as the sequence, how does the “shrunken log2 fold change” value read?
A: 0.298

Q: For RRIRTRPPRLPRPRPRPSVQPRP, which “shrunken log2 fold change” value is on record?
A: -0.0749

Q: With RRIRVRPPRLPRPRPRPDCLPRP as the sequence, how does the “shrunken log2 fold change” value read?
A: -0.318

Q: RRIRPRPPRLPRPRPRPRQCPRP was tested. Which “shrunken log2 fold change” value did it give?
A: 0.126

Q: With RRIRERPPRLPRPRPRPLYRPRP as the sequence, how does the “shrunken log2 fold change” value read?
A: -0.474

Q: RRIRWRPPRLPRPRPRPRTDPRP was tested. Which “shrunken log2 fold change” value did it give?
A: 0.342

Q: With RRIRCRPPRLPRPRPRPEKEPRP as the sequence, how does the “shrunken log2 fold change” value read?
A: -0.0494

Q: RRIRMRPPRLPRPRPRPQWAPRP was tested. Which “shrunken log2 fold change” value did it give?
A: -0.0175

Q: For RRIRERPPRLPRPRPRPVEDPRP, which “shrunken log2 fold change” value is on record?
A: 0.0178

Q: RRIRGRPPRLPRPRPRPEQFPRP was tested. Which “shrunken log2 fold change” value did it give?
A: 0.846

Q: With RRIRKRPPRLPRPRPRPTFGPRP as the sequence, how does the “shrunken log2 fold change” value read?
A: 0.0674

Q: How did the “shrunken log2 fold change” value turn out when RRIRSRPPRLPRPRPRPCWCPRP was run?
A: 0.0677

Q: How did the “shrunken log2 fold change” value turn out when RRIRTRPPRLPRPRPRPCWEPRP was run?
A: 0.203

Q: How did the “shrunken log2 fold change” value turn out when RRIRQRPPRLPRPRPRPMHWPRP was run?
A: 0.0747

Q: How did the “shrunken log2 fold change” value turn out when RRIRMRPPRLPRPRPRPPEFPRP was run?
A: 1.05

Q: RRIRMRPPRLPRPRPRPRLKPRP was tested. Which “shrunken log2 fold change” value did it give?
A: 1.82

Q: For RRIRHRPPRLPRPRPRPVLFPRP, which “shrunken log2 fold change” value is on record?
A: -0.0987

Q: For RRIRFRPPRLPRPRPRPHFHPRP, which “shrunken log2 fold change” value is on record?
A: -0.75

Q: Which “shrunken log2 fold change” value does the source give for RRIRARPPRLPRPRPRPPYEPRP here?
A: 0.194

Q: With RRIRQRPPRLPRPRPRPCNQPRP as the sequence, how does the “shrunken log2 fold change” value read?
A: -0.213

Q: Which “shrunken log2 fold change” value does the source give for RRIRWRPPRLPRPRPRPYWRPRP here?
A: 0.00194

Q: For RRIRGRPPRLPRPRPRPMVPPRP, which “shrunken log2 fold change” value is on record?
A: 0.202

Q: For RRIRWRPPRLPRPRPRPLVRPRP, which “shrunken log2 fold change” value is on record?
A: 0.151

Q: RRIRMRPPRLPRPRPRPYAFPRP was tested. Which “shrunken log2 fold change” value did it give?
A: -0.0624

Q: RRIRFRPPRLPRPRPRPTGYPRP was tested. Which “shrunken log2 fold change” value did it give?
A: 0.0801

Q: For RRIRERPPRLPRPRPRPKVYPRP, which “shrunken log2 fold change” value is on record?
A: -0.126

Q: For RRIRNRPPRLPRPRPRPFPKPRP, which “shrunken log2 fold change” value is on record?
A: 0.0299

Q: Which “shrunken log2 fold change” value does the source give for RRIRYRPPRLPRPRPRPYERPRP here?
A: -0.00804

Q: RRIRCRPPRLPRPRPRPRMFPRP was tested. Which “shrunken log2 fold change” value did it give?
A: 0.0907

Q: With RRIRHRPPRLPRPRPRPCIVPRP as the sequence, how does the “shrunken log2 fold change” value read?
A: -0.0379

Q: For RRIRLRPPRLPRPRPRPLQCPRP, which “shrunken log2 fold change” value is on record?
A: 0.121

Q: Which “shrunken log2 fold change” value does the source give for RRIRHRPPRLPRPRPRPSQCPRP here?
A: -0.325

Q: With RRIRQRPPRLPRPRPRPSHLPRP as the sequence, how does the “shrunken log2 fold change” value read?
A: 0.049

Q: RRIRIRPPRLPRPRPRPDKTPRP was tested. Which “shrunken log2 fold change” value did it give?
A: -0.0467

Q: Which “shrunken log2 fold change” value does the source give for RRIRGRPPRLPRPRPRPNWMPRP here?
A: -0.194

Q: With RRIRSRPPRLPRPRPRPPYCPRP as the sequence, how does the “shrunken log2 fold change” value read?
A: -0.031

Q: With RRIRSRPPRLPRPRPRPWTEPRP as the sequence, how does the “shrunken log2 fold change” value read?
A: -0.314

Q: RRIRKRPPRLPRPRPRPNMKPRP was tested. Which “shrunken log2 fold change” value did it give?
A: 0.125

Q: For RRIRQRPPRLPRPRPRPGLRPRP, which “shrunken log2 fold change” value is on record?
A: 0.285

Q: For RRIRKRPPRLPRPRPRPGEGPRP, which “shrunken log2 fold change” value is on record?
A: 0.0997

Q: RRIRYRPPRLPRPRPRPSYPPRP was tested. Which “shrunken log2 fold change” value did it give?
A: -0.217

Q: RRIRFRPPRLPRPRPRPVVTPRP was tested. Which “shrunken log2 fold change” value did it give?
A: -0.756

Q: With RRIRWRPPRLPRPRPRPRMHPRP as the sequence, how does the “shrunken log2 fold change” value read?
A: 0.485

Q: Which “shrunken log2 fold change” value does the source give for RRIRWRPPRLPRPRPRPVDDPRP here?
A: -0.0142

Q: With RRIRSRPPRLPRPRPRPKDYPRP as the sequence, how does the “shrunken log2 fold change” value read?
A: -0.128

Q: RRIRDRPPRLPRPRPRPTSDPRP was tested. Which “shrunken log2 fold change” value did it give?
A: 0.347

Q: With RRIRSRPPRLPRPRPRPFTFPRP as the sequence, how does the “shrunken log2 fold change” value read?
A: -0.189

Q: Which “shrunken log2 fold change” value does the source give for RRIRFRPPRLPRPRPRPKYQPRP here?
A: -0.534

Q: RRIRYRPPRLPRPRPRPPYFPRP was tested. Which “shrunken log2 fold change” value did it give?
A: -0.262

Q: Which “shrunken log2 fold change” value does the source give for RRIRPRPPRLPRPRPRPFYFPRP here?
A: -0.387

Q: For RRIRNRPPRLPRPRPRPIWNPRP, which “shrunken log2 fold change” value is on record?
A: -0.146

Q: With RRIRCRPPRLPRPRPRPVHEPRP as the sequence, how does the “shrunken log2 fold change” value read?
A: -0.073

Q: With RRIRNRPPRLPRPRPRPQHFPRP as the sequence, how does the “shrunken log2 fold change” value read?
A: -0.0338

Q: Which “shrunken log2 fold change” value does the source give for RRIRDRPPRLPRPRPRPCGTPRP here?
A: -0.0281

Q: RRIRERPPRLPRPRPRPQHGPRP was tested. Which “shrunken log2 fold change” value did it give?
A: -0.102

Q: RRIRRRPPRLPRPRPRPWLYPRP was tested. Which “shrunken log2 fold change” value did it give?
A: 0.0161

Q: Which “shrunken log2 fold change” value does the source give for RRIRIRPPRLPRPRPRPWHCPRP here?
A: -0.0926

Q: For RRIRKRPPRLPRPRPRPDRWPRP, which “shrunken log2 fold change” value is on record?
A: 0.683

Q: For RRIRCRPPRLPRPRPRPNVSPRP, which “shrunken log2 fold change” value is on record?
A: 0.0773

Q: RRIRHRPPRLPRPRPRPLVHPRP was tested. Which “shrunken log2 fold change” value did it give?
A: -0.238

Q: RRIRWRPPRLPRPRPRPFGWPRP was tested. Which “shrunken log2 fold change” value did it give?
A: 0.118

Q: For RRIRPRPPRLPRPRPRPLFSPRP, which “shrunken log2 fold change” value is on record?
A: -0.103

Q: How did the “shrunken log2 fold change” value turn out when RRIRQRPPRLPRPRPRPSYNPRP was run?
A: -0.723

Q: With RRIRMRPPRLPRPRPRPQGIPRP as the sequence, how does the “shrunken log2 fold change” value read?
A: -0.154

Q: How did the “shrunken log2 fold change” value turn out when RRIRKRPPRLPRPRPRPIVLPRP was run?
A: -0.299

Q: For RRIRTRPPRLPRPRPRPHFFPRP, which “shrunken log2 fold change” value is on record?
A: -0.161

Q: For RRIRKRPPRLPRPRPRPNEWPRP, which “shrunken log2 fold change” value is on record?
A: 0.0498

Q: For RRIRPRPPRLPRPRPRPAHHPRP, which “shrunken log2 fold change” value is on record?
A: 0.207

Q: RRIRDRPPRLPRPRPRPYEDPRP was tested. Which “shrunken log2 fold change” value did it give?
A: 0.0115

Q: RRIRLRPPRLPRPRPRPWGCPRP was tested. Which “shrunken log2 fold change” value did it give?
A: 0.0644

Q: Which “shrunken log2 fold change” value does the source give for RRIRRRPPRLPRPRPRPSALPRP here?
A: 0.392

Q: With RRIRVRPPRLPRPRPRPEYLPRP as the sequence, how does the “shrunken log2 fold change” value read?
A: -0.191

Q: For RRIRGRPPRLPRPRPRPVSAPRP, which “shrunken log2 fold change” value is on record?
A: 0.676

Q: With RRIRRRPPRLPRPRPRPILGPRP as the sequence, how does the “shrunken log2 fold change” value read?
A: 0.0385

Q: Which “shrunken log2 fold change” value does the source give for RRIRFRPPRLPRPRPRPNAGPRP here?
A: -0.0253

Q: RRIRTRPPRLPRPRPRPCRKPRP was tested. Which “shrunken log2 fold change” value did it give?
A: -0.0644

Q: How did the “shrunken log2 fold change” value turn out when RRIRFRPPRLPRPRPRPPARPRP was run?
A: 0.694

Q: How did the “shrunken log2 fold change” value turn out when RRIRVRPPRLPRPRPRPLGEPRP was run?
A: -0.162

Q: Which “shrunken log2 fold change” value does the source give for RRIRVRPPRLPRPRPRPSWAPRP here?
A: 0.0598

Q: RRIRGRPPRLPRPRPRPQKKPRP was tested. Which “shrunken log2 fold change” value did it give?
A: 0.0788

Q: How did the “shrunken log2 fold change” value turn out when RRIRSRPPRLPRPRPRPYIFPRP was run?
A: -0.683

Q: With RRIRMRPPRLPRPRPRPNEKPRP as the sequence, how does the “shrunken log2 fold change” value read?
A: 0.0356

Q: How did the “shrunken log2 fold change” value turn out when RRIRRRPPRLPRPRPRPIWMPRP was run?
A: 0.0986

Q: How did the “shrunken log2 fold change” value turn out when RRIRLRPPRLPRPRPRPCHEPRP was run?
A: 0.0247

Q: With RRIRGRPPRLPRPRPRPHGKPRP as the sequence, how does the “shrunken log2 fold change” value read?
A: 0.513

Q: With RRIRPRPPRLPRPRPRPWLGPRP as the sequence, how does the “shrunken log2 fold change” value read?
A: 0.256

Q: With RRIRDRPPRLPRPRPRPEVPPRP as the sequence, how does the “shrunken log2 fold change” value read?
A: 0.0916

Q: For RRIRGRPPRLPRPRPRPTKNPRP, which “shrunken log2 fold change” value is on record?
A: 0.69

Q: With RRIRPRPPRLPRPRPRPHVEPRP as the sequence, how does the “shrunken log2 fold change” value read?
A: 0.107

Q: With RRIRQRPPRLPRPRPRPFPPPRP as the sequence, how does the “shrunken log2 fold change” value read?
A: -0.0272

Q: For RRIRHRPPRLPRPRPRPVEVPRP, which “shrunken log2 fold change” value is on record?
A: 0.0201

Q: Which “shrunken log2 fold change” value does the source give for RRIRIRPPRLPRPRPRPKILPRP here?
A: -0.0568

Q: Which “shrunken log2 fold change” value does the source give for RRIRFRPPRLPRPRPRPTLVPRP here?
A: -0.141

Q: RRIRHRPPRLPRPRPRPKLEPRP was tested. Which “shrunken log2 fold change” value did it give?
A: -0.0604

Q: For RRIRQRPPRLPRPRPRPSIDPRP, which “shrunken log2 fold change” value is on record?
A: -0.607

Q: Which “shrunken log2 fold change” value does the source give for RRIRMRPPRLPRPRPRPCDWPRP here?
A: 0.179

Q: For RRIRDRPPRLPRPRPRPDMIPRP, which “shrunken log2 fold change” value is on record?
A: 0.0954

Q: With RRIRYRPPRLPRPRPRPPAFPRP as the sequence, how does the “shrunken log2 fold change” value read?
A: -0.242

Q: With RRIRVRPPRLPRPRPRPNCEPRP as the sequence, how does the “shrunken log2 fold change” value read?
A: 3.97

Q: For RRIRFRPPRLPRPRPRPPLIPRP, which “shrunken log2 fold change” value is on record?
A: -0.182

Q: With RRIRSRPPRLPRPRPRPHNCPRP as the sequence, how does the “shrunken log2 fold change” value read?
A: -0.159

Q: With RRIRHRPPRLPRPRPRPHFEPRP as the sequence, how does the “shrunken log2 fold change” value read?
A: 0.0715
